Reference: patent publication US20080226682A1, “Immunoactive Compositions for Improved Oral Delivery of Vaccines and Therapeutic Agents” (PerOs Systems Technologies, Inc., priority 2007, published 2008)
“Also recorded” adds a separate entry of the source.

Columns and labels:
feline immune cells = experiment: Leukocyte mitogenic response (BrdU-based ELISA, stimulation index); type: cell-based; conditions: purified lectin at mitogen concentration (5-40 μg/mL), day 4
Chicken PBMC = experiment: Immune cell proliferation, tetrazolium colorimetric reading (Stimulation Index)
Feline PBMC = experiment: as above
human immune cells = experiment: Leukocyte mitogenic response (BrdU-based ELISA, stimulation index); type: cell-based; conditions: purified lectin at mitogen concentration (5-40 μg/mL), day 4
Sheep PBMC = experiment: Immune cell proliferation, tetrazolium colorimetric reading (Stimulation Index)
Calf PBMC = experiment: as above
Swine PBMC = experiment: as above
bovine immune cells = experiment: Leukocyte mitogenic response (BrdU-based ELISA, stimulation index); type: cell-based; conditions: purified lectin at mitogen concentration (5-40 μg/mL), day 4
equine immune cells = experiment: as above; type: cell-based; conditions: purified lectin at mitogen concentration (5-40 μg/mL), day 4
Trout HK Cells = experiment: Immune cell proliferation, tetrazolium colorimetric reading (Stimulation Index); type: cell-based
salmon immune cells = experiment: Leukocyte mitogenic response (BrdU-based ELISA, stimulation index); type: cell-based; conditions: purified lectin at mitogen concentration (5-40 μg/mL), day 4
swine immune cells = experiment: as above; type: cell-based; conditions: purified lectin at mitogen concentration (5-40 μg/mL), day 4
Excerpt: (§1) Lymphocytes are a representative immune system prototypic cell that may be used in in vitro assays for immunological effects of lectins, saponins and other components of natural plant or animal products. Exemplary lymphocytes for representative target species may be obtained and used in the Examples disclosed herein. The effects of various compositions on lymphocyte proliferation is examined using a standard tetrazolium based colorimetric assay (MTT). An Alamar blue-based colorimetric assay gave equivalent results to [^3H]-thymidine incorporation assay. The MTT colorimetric assay has also been used in lymphocyte proliferation assays using chicken splenocytes. These and other known assays may be utilized in the methods disclosed herein.
(§2) In one non-limiting example, cells from anterior fish kidney are obtained by forcing the aseptically removed tissue through a 100 μm cell strainer into L-15 medium supplemented with 2% fetal bovine serum (FBS), 100 U mL^−1 penicillin, 100 μg mL^−1 streptomycin, and 10 U mL^−1 sodium heparin (Processing medium, PM). The single-cell suspension is removed from the settled tissue fragments and cells are pelleted by centrifugation at 500×g for 10 min at 4° C. […]
(§3) The number of viable kidney or blood leukocytes isolated from each fish is determined by trypan blue exclusion (0.1% trypan blue in PM), and the cells are pelleted as described above.
(§4) Mitogen concentrations used to stimulate the isolated leukocytes are as follows: 10 μg mL^−1 SBA, 10 μg mL^−1 PHA-E or PHA-L, 5 μg mL^−1 LBL, 20 μg mL^−1 LCA or LOA, 10 μg mL^−1 ConA, 40 ug mL^−1 PSA and 5 μg mL^−1 PNA. […] The mitogenic response is measured on the fourth day of incubation post-mitogen stimulation using a BrdU-based ELISA at room temperature as described (Gauthier, D. T. 2003). Stimulation index (SI) values are calculated as the replicate mean optical density for a given set of mitogen-treated leukocytes divided by the replicate mean optical density of the associated mitogen free (control) leukocytes. […]

Mouse Splenocytes = experiment: Immune cell proliferation, tetrazolium colorimetric reading (Stimulation Index); type: cell-based, BALB/c mice
canine immune cells = experiment: Leukocyte mitogenic response (BrdU-based ELISA, stimulation index); type: cell-based; conditions: purified lectin at mitogen concentration (5-40 μg/mL), day 4
shrimp immune cells = experiment: as above; type: cell-based; conditions: purified lectin at mitogen concentration (5-40 μg/mL), day 4
trout immune cells = experiment: as above; type: cell-based; conditions: purified lectin at mitogen concentration (5-40 μg/mL), day 4
Excerpt: as §1, §2, §3, §4

Molecule: SBA: Soybean (Glycine max) Lectin
- Immunomodulatory effect (stimulation index class) (feline immune cells): + (between 1 and 4.9 is assigned a value of + (weak mitogen))
- lowest concentration of lectins required for stimulation response above background (Chicken PBMC): Negative
- lowest concentration of lectins required for stimulation response above background (Feline PBMC): 1 μg/ml ug/ml
- Immunomodulatory effect (stimulation index class) (human immune cells): ++ (between 5 and 9.9 is assigned a value of ++ (moderate mitogen))
- lowest concentration of lectins required for stimulation response above background (Sheep PBMC): 50 µg/mL
- lowest concentration of lectins required for stimulation response above background (Calf PBMC): 50 µg/mL
- lowest concentration of lectins required for stimulation response above background (Swine PBMC): 50 µg/mL
- Immunomodulatory effect (stimulation index class) (bovine immune cells): + (between 1 and 4.9 is assigned a value of + (weak mitogen))
- Immunomodulatory effect (stimulation index class) (equine immune cells): −− (<1 is assigned a value of −− (anti-mitogenic))
- lowest concentration of lectins required for stimulation response above background (Trout HK Cells): refractory; also recorded: Negative
- Immunomodulatory effect (stimulation index class) (salmon immune cells): +++ (≧10 is assigned a value of +++ (strong mitogen))
- Immunomodulatory effect (stimulation index class) (swine immune cells): −− (<1 is assigned a value of −− (anti-mitogenic))
- lowest concentration of lectins required for stimulation response above background (Mouse Splenocytes): Negative

B1: PSA: small pea (Pisum sativum) lectin (protein, UniProt P02867 31-217; P02867 218-275, looked up)
Lectin beta chain: TETTSFLITKFSPDQQNLIFQGDGYTTKEKLTLTKAVKNTVGRALYSSPIHIWDRETGNVANFVTSFTFVINAPNSYNVADGFTFFIAPVDTKPQTGGGYLGVFNSAEYDKTTQTVAVEFDTFYNAAWDPSNRDRHIGIDVNSIKSVNTKSWKLQNGEEANVVIAFNAATNVLTVSLTYPNSLEEEN
Lectin alpha chain: VTSYTLSDVVSLKDVVPEWVRIGFSATTGAEYAAHEVLSWSFHSELSGTSSSKQAADA
- Immunomodulatory effect (stimulation index class) (feline immune cells): −− (<1 is assigned a value of −− (anti-mitogenic))
- Immunomodulatory effect (stimulation index class) (human immune cells): ++ (between 5 and 9.9 is assigned a value of ++ (moderate mitogen))
- Immunomodulatory effect (stimulation index class) (canine immune cells): + (between 1 and 4.9 is assigned a value of + (weak mitogen))
- Immunomodulatory effect (stimulation index class) (shrimp immune cells): +++ (≧10 is assigned a value of +++ (strong mitogen))
- Immunomodulatory effect (stimulation index class) (bovine immune cells): +++ (≧10 is assigned a value of +++ (strong mitogen))
- Immunomodulatory effect (stimulation index class) (equine immune cells): + (between 1 and 4.9 is assigned a value of + (weak mitogen))
- Immunomodulatory effect (stimulation index class) (salmon immune cells): −− (<1 is assigned a value of −− (anti-mitogenic))
- Immunomodulatory effect (stimulation index class) (trout immune cells): +++ (≧10 is assigned a value of +++ (strong mitogen))

B2: PNA: peanut (Arachis hypogaea) lectin (protein, UniProt P02872 24-273, looked up)
Galactose-binding lectin: AETVSFNFNSFSEGNPAINFQGDVTVLSNGNIQLTNLNKVNSVGRVLYAMPVRIWSSATGNVASFLTSFSFEMKDIKDYDPADGIIFFIAPEDTQIPAGSIGGGTLGVSDTKGAGHFVGVEFDTYSNSEYNDPPTDHVGIDVNSVDSVKTVPWNSVSGAVVKVTVIYDSSTKTLSVAVTNDNGDITTIAQVVDLKAKLPERVKFGFSASGSLGGRQIHLIRSWSFTSTLITTTRRSIDNNEKKIMNMASA
- Immunomodulatory effect (stimulation index class) (feline immune cells): +++ (≧10 is assigned a value of +++ (strong mitogen))
- Immunomodulatory effect (stimulation index class) (human immune cells): + (between 1 and 4.9 is assigned a value of + (weak mitogen))
- Immunomodulatory effect (stimulation index class) (canine immune cells): ++ (between 5 and 9.9 is assigned a value of ++ (moderate mitogen))
- Immunomodulatory effect (stimulation index class) (shrimp immune cells): −− (<1 is assigned a value of −− (anti-mitogenic))
- Immunomodulatory effect (stimulation index class) (bovine immune cells): + (between 1 and 4.9 is assigned a value of + (weak mitogen))
- Immunomodulatory effect (stimulation index class) (equine immune cells): ++ (between 5 and 9.9 is assigned a value of ++ (moderate mitogen))
- Immunomodulatory effect (stimulation index class) (salmon immune cells): +++ (≧10 is assigned a value of +++ (strong mitogen))
- Immunomodulatory effect (stimulation index class) (trout immune cells): −− (<1 is assigned a value of −− (anti-mitogenic))
